Assay [1] has as its target CA IX expressed by cells (C-33a_CA IX transfectants; hypoxic BT-20, JIMT-1, 8-MG-BA and 42-MG-BA cells) (human) (UniProt Q16790). Description: flow cytometry, M75 1 ug/ml and Alexa 488 secondary antibody, hypoxic JIMT-1 cells.
Assay [2] has the same target. Description: flow cytometry, M75 1 ug/ml and Alexa 488 secondary antibody, hypoxic BT-20 cells. Background: In flow cytometry, cells or beads pass a laser one at a time.

As to mouse monoclonal antibody M75, the results for the median signal level of CA IX-staining in assay [1] and in assay [2] were 86.8 and 108, respectively.

The values are drawn from patent publication US20240150490A1.
